Assays:
Assay in all cases: holdup assay
Design in all cases: key: below the threshold = too weak to quantify, mostly under pKd 3.1 to 4
Details in all cases: plain residues with an end cap or a label only (N-terminal biotin on a linker: ado-ado)
Inadl_9, Q8NI35 = molecular target: Inadl_9, Q8NI35
PDZD2_2, O15018 = molecular target: T1, PDZD2_2, O15018
T1 sequence (O15018 329-429, limits assumed, looked up): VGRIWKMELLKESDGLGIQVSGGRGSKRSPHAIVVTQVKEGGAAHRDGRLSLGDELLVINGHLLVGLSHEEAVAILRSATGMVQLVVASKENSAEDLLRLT

APBA3_1, O96018 = molecular target: T2, APBA3_1, O96018
T2 sequence (O96018 389-490, limits assumed, looked up): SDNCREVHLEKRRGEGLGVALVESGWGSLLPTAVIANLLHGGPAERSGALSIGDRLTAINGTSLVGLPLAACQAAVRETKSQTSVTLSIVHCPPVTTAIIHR

HTRA4, P83105 = molecular target: T3, HTRA4, P83105
T3 sequence (P83105 378-476, limits assumed, looked up): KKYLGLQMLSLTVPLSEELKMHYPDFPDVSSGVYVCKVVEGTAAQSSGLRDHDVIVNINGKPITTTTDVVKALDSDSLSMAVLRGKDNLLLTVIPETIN

NHERF4_4, Q86UT5 = molecular target: NHERF4_4, Q86UT5
NHERF4_1, Q86UT5-2 = molecular target: NHERF4_1, Q86UT5-2
Inadl_8, Q8NI35 = molecular target: Inadl_8, Q8NI35
MPP2, Q14168 = molecular target: T4, MPP2, Q14168
T4 sequence (Q14168 180-250, limits assumed, looked up): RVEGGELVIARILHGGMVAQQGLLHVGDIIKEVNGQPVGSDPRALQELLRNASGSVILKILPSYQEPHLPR

PDZD7_3, Q9H5P4 = molecular target: T5, PDZD7_3, Q9H5P4
T5 sequence (Q9H5P4 857-944, limits assumed, looked up): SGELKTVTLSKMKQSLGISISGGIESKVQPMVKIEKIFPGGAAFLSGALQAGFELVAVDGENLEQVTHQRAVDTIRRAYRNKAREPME

MAST2, Q6P0Q8 = molecular target: MAST2, Q6P0Q8
FRMPD1, Q5SYB0 = molecular target: T6, FRMPD1, Q5SYB0
T6 sequence (Q5SYB0 52-145, limits assumed, looked up): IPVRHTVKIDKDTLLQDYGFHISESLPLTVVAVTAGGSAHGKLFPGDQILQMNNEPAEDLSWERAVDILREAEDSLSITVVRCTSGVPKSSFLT

Inadl_1, Q8NI35 = molecular target: Inadl_1, Q8NI35
IL16_4, Q14005 = molecular target: IL16_4, Q14005
ARHGEF12, Q9NZN5-2 = molecular target: ARHGEF12, Q9NZN5-2
DVL3, Q92997 = molecular target: T7, DVL3, Q92997
T7 sequence (Q92997 244-331, limits assumed, looked up): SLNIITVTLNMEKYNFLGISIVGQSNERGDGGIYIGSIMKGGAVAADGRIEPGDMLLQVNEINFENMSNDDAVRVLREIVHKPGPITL

FRMPD2_1, Q68DX3 = molecular target: FRMPD2_1, Q68DX3
LNX1_3, Q8TBB1 = molecular target: LNX1_3, Q8TBB1
LIN7C, Q9NUP9 = molecular target: T8, LIN7C, Q9NUP9
T8 sequence (Q9NUP9 88-185, limits assumed, looked up): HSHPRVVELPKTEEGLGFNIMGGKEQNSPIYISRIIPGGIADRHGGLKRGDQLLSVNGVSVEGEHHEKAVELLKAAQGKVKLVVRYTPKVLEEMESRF

Inadl_6, Q8NI35 = molecular target: Inadl_6, Q8NI35
Inadl_3, Q8NI35 = molecular target: Inadl_3, Q8NI35
DLG4_1, P78352 = molecular target: DLG4_1, P78352
GRID2IP_1, A4D2P6 = molecular target: GRID2IP_1, A4D2P6
LNX2_3, Q8N448 = molecular target: T9, LNX2_3, Q8N448
T9 sequence (Q8N448 463-564, limits assumed, looked up): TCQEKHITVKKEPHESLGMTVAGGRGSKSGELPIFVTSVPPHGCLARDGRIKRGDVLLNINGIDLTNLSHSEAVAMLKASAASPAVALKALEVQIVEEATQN

LIN7B, Q9HAP6 = molecular target: T10, LIN7B, Q9HAP6
T10 sequence (Q9HAP6 88-185, limits assumed, looked up): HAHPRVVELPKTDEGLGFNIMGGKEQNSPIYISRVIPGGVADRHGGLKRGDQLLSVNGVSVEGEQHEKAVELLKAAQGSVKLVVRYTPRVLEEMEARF

MAGI2_5, Q86UL8 = molecular target: MAGI2_5, Q86UL8
GRIP1_4, Q9Y3R0 = molecular target: T11, GRIP1_4, Q9Y3R0
T11 sequence (Q9Y3R0 467-571, limits assumed, looked up): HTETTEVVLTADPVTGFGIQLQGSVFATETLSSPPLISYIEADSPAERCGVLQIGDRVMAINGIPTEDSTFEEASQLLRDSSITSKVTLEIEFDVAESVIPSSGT

GRID2IP_1, A4D2P6, sequence (A4D2P6 1-87): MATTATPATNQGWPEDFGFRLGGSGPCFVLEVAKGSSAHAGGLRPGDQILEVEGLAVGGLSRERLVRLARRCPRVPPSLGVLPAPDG
MAST2, Q6P0Q8, sequence (Q6P0Q8 1099-1202): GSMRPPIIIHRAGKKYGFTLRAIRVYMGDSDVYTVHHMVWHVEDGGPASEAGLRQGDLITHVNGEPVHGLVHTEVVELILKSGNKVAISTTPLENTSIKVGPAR
IL16_4, Q14005, sequence (Q14005 1229-1329): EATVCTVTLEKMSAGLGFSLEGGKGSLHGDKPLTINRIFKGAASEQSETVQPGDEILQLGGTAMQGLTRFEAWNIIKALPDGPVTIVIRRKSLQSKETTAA
Inadl_8, Q8NI35, sequence (Q8NI35 1425-1530): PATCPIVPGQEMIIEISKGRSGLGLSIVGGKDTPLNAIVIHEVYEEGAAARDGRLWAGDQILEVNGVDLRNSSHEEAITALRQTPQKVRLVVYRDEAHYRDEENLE
LNX1_3, Q8TBB1, sequence (Q8TBB1 500-596): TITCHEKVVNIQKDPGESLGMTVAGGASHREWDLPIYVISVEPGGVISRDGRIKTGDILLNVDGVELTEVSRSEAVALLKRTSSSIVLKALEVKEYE
Inadl_3, Q8NI35, sequence (Q8NI35 359-469): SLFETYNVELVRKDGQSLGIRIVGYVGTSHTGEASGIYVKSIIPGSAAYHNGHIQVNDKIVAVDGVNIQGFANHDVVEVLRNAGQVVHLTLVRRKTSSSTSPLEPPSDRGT
DLG4_1, P78352, sequence (P78352 62-152): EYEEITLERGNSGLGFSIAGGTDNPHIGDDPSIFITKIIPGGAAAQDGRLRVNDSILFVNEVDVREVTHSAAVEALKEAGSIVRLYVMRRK
Inadl_1, Q8NI35, sequence (Q8NI35 113-229): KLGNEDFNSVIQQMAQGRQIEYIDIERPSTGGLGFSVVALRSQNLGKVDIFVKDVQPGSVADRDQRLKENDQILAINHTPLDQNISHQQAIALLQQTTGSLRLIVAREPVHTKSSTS
ARHGEF12, Q9NZN5-2, sequence (Q9NZN5 other isoform, or with tags, fused parts or gaps): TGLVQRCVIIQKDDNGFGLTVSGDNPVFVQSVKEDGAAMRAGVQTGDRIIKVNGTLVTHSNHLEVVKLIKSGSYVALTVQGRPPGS
Inadl_6, Q8NI35, sequence (Q8NI35 1058-1167): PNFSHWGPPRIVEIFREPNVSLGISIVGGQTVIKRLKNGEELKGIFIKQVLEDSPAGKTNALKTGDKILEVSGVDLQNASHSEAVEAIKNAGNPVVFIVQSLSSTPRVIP
NHERF4_4, Q86UT5, sequence (Q86UT5 464-550): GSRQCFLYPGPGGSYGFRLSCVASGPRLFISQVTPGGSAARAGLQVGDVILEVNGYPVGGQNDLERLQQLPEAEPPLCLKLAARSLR
NHERF4_1, Q86UT5-2, sequence (Q86UT5 other isoform, or with tags, fused parts or gaps): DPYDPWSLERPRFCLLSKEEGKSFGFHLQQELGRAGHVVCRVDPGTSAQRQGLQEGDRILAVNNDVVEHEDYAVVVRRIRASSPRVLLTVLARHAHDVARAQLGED
Inadl_9, Q8NI35, sequence (Q8NI35 1530-1615): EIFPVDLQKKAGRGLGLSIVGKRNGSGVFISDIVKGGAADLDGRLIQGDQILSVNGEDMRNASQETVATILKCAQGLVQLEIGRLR
FRMPD2_1, Q68DX3, sequence (Q68DX3 770-861): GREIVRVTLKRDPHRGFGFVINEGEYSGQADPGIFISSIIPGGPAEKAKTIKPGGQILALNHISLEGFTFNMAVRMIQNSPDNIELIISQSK
MAGI2_5, Q86UL8, sequence (Q86UL8 915-1017): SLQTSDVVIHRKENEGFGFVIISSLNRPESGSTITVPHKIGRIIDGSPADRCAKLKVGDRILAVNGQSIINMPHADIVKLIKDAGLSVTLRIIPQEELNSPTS

In the case of CLREWCDAFL [BANF1, O75531], the pKd (Inadl_9, Q8NI35) is reported as “below the threshold”, the pKd (PDZD2_2, O15018) is reported as “below the threshold” and the pKd (APBA3_1, O96018) is reported as “below the threshold”. For the same binder, the pKd (HTRA4, P83105) was 3.64, the pKd (NHERF4_4, Q86UT5) was 3.6 and the pKd (NHERF4_1, Q86UT5-2) was 4.13. For the same binder, the pKd (Inadl_8, Q8NI35) was “below the threshold”, the pKd (MPP2, Q14168) was “below the threshold” and the pKd (PDZD7_3, Q9H5P4) was “below the threshold”. For the same binder, the pKd (MAST2, Q6P0Q8) was 5.52, the pKd (FRMPD1, Q5SYB0) was “below the threshold” and the pKd (Inadl_1, Q8NI35) was “below the threshold”. The pKd (IL16_4, Q14005) was “below the threshold”, the pKd (ARHGEF12, Q9NZN5-2) was “below the threshold” and the pKd (DVL3, Q92997) was 3.65. The pKd (FRMPD2_1, Q68DX3) was “below the threshold”, the pKd (LNX1_3, Q8TBB1) was “below the threshold” and the pKd (LIN7C, Q9NUP9) was 3.66. For the same binder, the pKd (Inadl_6, Q8NI35) was 4.32, the pKd (Inadl_3, Q8NI35) was 4.23 and the pKd (DLG4_1, P78352) was “below the threshold”. For the same binder, the pKd (GRID2IP_1, A4D2P6) was “below the threshold”, the pKd (LNX2_3, Q8N448) was “below the threshold” and the pKd (LIN7B, Q9HAP6) was 3.94. For the same binder, the pKd (MAGI2_5, Q86UL8) was “below the threshold” and the pKd (GRIP1_4, Q9Y3R0) was “below the threshold”.

For PPYRHRNTVV [ERBB4, Q15303], the pKd (Inadl_9, Q8NI35) was 3.53, the pKd (PDZD2_2, O15018) was 4.25 and the pKd (APBA3_1, O96018) was “below the threshold”. The pKd (HTRA4, P83105) was “below the threshold”, the pKd (NHERF4_4, Q86UT5) was “below the threshold” and the pKd (NHERF4_1, Q86UT5-2) was “below the threshold”. The pKd (Inadl_8, Q8NI35) was 4.29, the pKd (MPP2, Q14168) was “below the threshold” and the pKd (PDZD7_3, Q9H5P4) was 4.63. The pKd (MAST2, Q6P0Q8) was 4.48, the pKd (FRMPD1, Q5SYB0) was “below the threshold” and the pKd (Inadl_1, Q8NI35) was “below the threshold”. For the same binder, the pKd (IL16_4, Q14005) was “below the threshold”, the pKd (ARHGEF12, Q9NZN5-2) was 4.12 and the pKd (DVL3, Q92997) was “below the threshold”. For the same binder, the pKd (FRMPD2_1, Q68DX3) was 3.71, the pKd (LNX1_3, Q8TBB1) was “below the threshold” and the pKd (LIN7C, Q9NUP9) was “below the threshold”. The pKd (Inadl_6, Q8NI35) was “below the threshold”, the pKd (Inadl_3, Q8NI35) was “below the threshold” and the pKd (DLG4_1, P78352) was 4.88. The pKd (GRID2IP_1, A4D2P6) was 3.89, the pKd (LNX2_3, Q8N448) was “below the threshold” and the pKd (LIN7B, Q9HAP6) was “below the threshold”. The pKd (MAGI2_5, Q86UL8) was “below the threshold” and the pKd (GRIP1_4, Q9Y3R0) was “below the threshold”.

With RRISSLESEV [GRIN2C, Q14957] the pKd (Inadl_9, Q8NI35) was “below the threshold”, the pKd (PDZD2_2, O15018) was 4.98 and the pKd (APBA3_1, O96018) was “below the threshold”. For the same binder, the pKd (HTRA4, P83105) was “below the threshold”, the pKd (NHERF4_4, Q86UT5) was “below the threshold” and the pKd (NHERF4_1, Q86UT5-2) was 3.71. The pKd (Inadl_8, Q8NI35) was 3.58, the pKd (MPP2, Q14168) was “below the threshold” and the pKd (PDZD7_3, Q9H5P4) was 4.32. For the same binder, the pKd (MAST2, Q6P0Q8) was 5.07, the pKd (FRMPD1, Q5SYB0) was “below the threshold” and the pKd (Inadl_1, Q8NI35) was “below the threshold”. The pKd (IL16_4, Q14005) was “below the threshold”, the pKd (ARHGEF12, Q9NZN5-2) was 4.31 and the pKd (DVL3, Q92997) was “below the threshold”. For the same binder, the pKd (FRMPD2_1, Q68DX3) was “below the threshold”, the pKd (LNX1_3, Q8TBB1) was “below the threshold” and the pKd (LIN7C, Q9NUP9) was 4.29. For the same binder, the pKd (Inadl_6, Q8NI35) was “below the threshold”, the pKd (Inadl_3, Q8NI35) was 3.68 and the pKd (DLG4_1, P78352) was 4.68. For the same binder, the pKd (GRID2IP_1, A4D2P6) was “below the threshold”, the pKd (LNX2_3, Q8N448) was “below the threshold” and the pKd (LIN7B, Q9HAP6) was 4.12. For the same binder, the pKd (MAGI2_5, Q86UL8) was 4.96 and the pKd (GRIP1_4, Q9Y3R0) was “below the threshold”.

For LGRSTPQSEV [DGKH, Q86XP1], the pKd (Inadl_9, Q8NI35) was “below the threshold”, the pKd (PDZD2_2, O15018) was 4.72 and the pKd (APBA3_1, O96018) was “below the threshold”. For the same binder, the pKd (HTRA4, P83105) was “below the threshold”, the pKd (NHERF4_4, Q86UT5) was “below the threshold” and the pKd (NHERF4_1, Q86UT5-2) was “below the threshold”. For the same binder, the pKd (Inadl_8, Q8NI35) was 3.98, the pKd (MPP2, Q14168) was “below the threshold” and the pKd (PDZD7_3, Q9H5P4) was 4.4. The pKd (MAST2, Q6P0Q8) was 4.85, the pKd (FRMPD1, Q5SYB0) was “below the threshold” and the pKd (Inadl_1, Q8NI35) was “below the threshold”. For the same binder, the pKd (IL16_4, Q14005) was “below the threshold”, the pKd (ARHGEF12, Q9NZN5-2) was 4.18 and the pKd (DVL3, Q92997) was “below the threshold”. For the same binder, the pKd (FRMPD2_1, Q68DX3) was “below the threshold”, the pKd (LNX1_3, Q8TBB1) was “below the threshold” and the pKd (LIN7C, Q9NUP9) was “below the threshold”. For the same binder, the pKd (Inadl_6, Q8NI35) was “below the threshold”, the pKd (Inadl_3, Q8NI35) was “below the threshold” and the pKd (DLG4_1, P78352) was 3.85. For the same binder, the pKd (GRID2IP_1, A4D2P6) was “below the threshold”, the pKd (LNX2_3, Q8N448) was “below the threshold” and the pKd (LIN7B, Q9HAP6) was “below the threshold”. For the same binder, the pKd (MAGI2_5, Q86UL8) was “below the threshold” and the pKd (GRIP1_4, Q9Y3R0) was “below the threshold”.

Reference: paper PMC9482650, “Quantitative fragmentomics allow affinity mapping of interactomes” (Nature Communications, 2022)
